Results on four molecules are retold here after patent publication US7407933B2, “Drug containing angiotensin convertase” (priority 2002, dated 2008).

One series has as its system sperm-zona binding. Nature of the series: Sperm-egg (zona pellucida) binding assay. The class given is cell-based, mouse. On the procedure: All gametes were placed and handled within TYH medium. […] were isolated from wild-type mice and ACE knockout mice, and dispersed in 250 μl of medium. After sperms were floated for 15 minutes, transferred to 1.5 ml medium and incubated for at least 1 hour. Eggs were separated from superovulated mice and treated with 1 mg/ml of hyaluronidase (Sigma) on THY medium for removing laminated cells. Incubated sperms (approximately 2.0×10^6 sperm/ml) were treated for 90 min with 0.2 U wild-type ACE (ACE-WT), 0.2 U ACE-E414D, 1.0 IU/ml PI-PLC, or […] PI-PLC with 4 mM inositol monophosphate (Sigma), 4 mM inositol monophosphate, and buffer (PBS) alone. For the sperm-egg (zona pellucida) binding assay, gametes were co-incubated in a TYH droplet covered with mineral oil for 1 h, washed gently in PBS and fixed with 4% paraformaldehyde/PBS. The oocytes were visualized at 200× under a light microscope (Olympus) and the number of sperms was counted at a focus showing the widest diameter of eggs.
In addition, the effect of ACE on sperm-egg binding was examined. That is, Epididymal sperms of both wild-type and knockout mice were treated with either wild-type or peptidase-inactivated (E414D) ACEs or PI-PLC and then incubated with unfertilized eggs from C57BL/6 mice. These treatments had no effects on wild-type sperm-zona binding.

Another series deals with DAF. The settings on record: erythrocyte having prominent acylation; cited from earlier work.
The nature of series [1]: Peptidase activity of ACE. The following applies: relative to wild-type ACE. The class given is biochemical. On the procedure: FIG. 7 is a measurement of peptidase activity (Pase). The E414D is a mutant that Glu414 in the peptidase active site was substituted to Asp. WT, wild-type ACE-T. Procedures were accorded with the description of Kasahara and Ashihara, Clin Chem. 27:1922-1925.
The obtained PCR product encodes a FLAG-tagged version of the soluble testicular isoform. The cDNA for peptidase-inactivated mutant with amino acid Glu414 replaced by Asp was prepared by the site-directed mutagenesis with the mutation promer: 5′-cttggtgatag cgcaccacga tatgggccac atccagtatt tcatgca-3′ (SEQ ID NO: 3). The culture supernatants of COS7 cells transfected with the ACE cDNAs were collected and recombinant ACEs were purified by anti-FLAG M2-agarose affinity column (Sigma). The somatic isoform of ACE (ACE-S) from rabbit lung (Sigma A-6778) was also used according to the manufacturer's protocol. The peptidase activity of the ACE was measured by the reported method (Kawahara and Ashihara, Clin. Chem. 27:1922-1925, 1981). 1.9. FACS Analysis

A further series relates to PLAP. Nature of the series: PLAP conversion assay (GPI-anchored protein releasing activity). The following applies: immunoblotting of PLAP. The class given is biochemical. On the procedure:
This assay uses a nature of nonionic detergent, TritonX-114, which distributes water-soluble molecules and hydrophobia molecules soluble to detergent. By the PLAP conversion assay, GPI-anchored protein releasing activity in a course of purification was monitored. PLAP was prepared by expressing cDNA in COS7 cells, extracted by buffer containing 20 mM Tris, pH 8.0, 150 mM NaCl, 1% TritonX-114, Complete™ protease-inhibitor and the detergent-soluble phase was collected after partitioning at 37° C. PLAP was purified by DEAE-cellulose ionic exchange liquid chromatography (LC) (elution buffer: […] tris pH8.0, 0.1% TritonX-100, 0 mM-500 mM NaCl gradient) and anti-PLAP antibody column (antibody: rabbit anti-PLAP polyclonal antibody, Biomeda; Column: Hitrap NHS-Activated HP, Amercham Bioscience; elution buffer: 100 mM glycine pH2.8). Using detergent-soluble PLAP protein as substrate performed assay. PLAP activity was measured with an alkaline phosphatase detection kit (Nacalai tesque). The conversion reaction was performed in 100 mM Tris, pH 7.5, 5 mM CaCl2, 150 mM NaCl and 0.3 IU/ml of PLAP for 90 min at 37° C. The reaction was stopped by adding TritonX-114 at a final concentration of 2% and 1 mM EDTA, followed by microcentrifugation at 25° C. The water-soluble phase was collected and PLAP activity was measured by the alkaline phosphatase detection kit. […]

In the next series the test system is prion protein. The following applies: HEK293 cells, 1.0 U/ml.
The next series has as its system CD59. Description: FACS analysis of shedding, CD59 on HeLa cells. The following applies: filipin pre-treated HeLa cells. The class given is cell-based, human.
For series [2], the system named is EGFP-GPI. Description: FACS analysis of shedding, EGFP-GPI on F9 cells. The class given is cell-based. The settings on record: without filipin pre-treatment.
For the next series, the system named is E-cadherin. Nature of the series: FACS analysis of shedding, E-cadherin on F9 cells. The class given is cell-based, mouse.
Series [3] has as its system EGFP-GPI. Nature of the series: Radiolabeling analysis of released EGFP-GPI from F9 cells. The class given is cell-based. The settings on record: filipin-pretreated F9 cells. The protocol:
F9 cells expressing EGFP-GPI were metabolically labeled with 0.2 mCi/ml of [^32P]-orthophosphoric acid (Amersham Bioscience) or 0.1 mCi/ml of [^3H]-ethanolamine (Amersham Bioscience) for 16 h. Filipin-pretreated cells were incubated with 0.5 μM of ACE, 1.0 IU/ml of PI-PLC or 10% lysate of mouse submaxillary gland containing mouse glandular kallikrein (mGK; enzyme digesting EGFP at near C-terminus) for 1 h at 37° C. Released EGFP was immunoprecipitated with anti-GFP antibody, subjected to SDS-PAGE and transferred onto nitrocellulose membrane. The quantity of EGFP-GPI protein was evaluated by measuring the density of bands detected on EGFP immunoblotting by using a densitometer (Molecular Device) and radioactivity of the cognate band was determined by a liquid scintillation counter.
Therefore, the F9 cells expressing EGFP-GPI were metabolically labeled with [^32P]-phosphate or [^3H]-ethanolamine, and treated with ACE, PI-PLC or mGK. Then, the released proteins from the cells were applied to EGFP immunoblotting, to measure radioactivity for each band (FIG. 15). Measurements were performed at least four times, and the almost same results were obtained. Although the released EGFP-GPI products with ^32P or ^3H labeling were not detected by mGK treatments, both were detected by ACE treatment or PI-PLC treatment, indicating the presence of a portion of GPI-anchor structure in the ACE-released molecules.

Turning to `O=P(O)(O)O[C@@H]1[C@@H](O)[C@H](O)[C@@H](O)[C@H](O)[C@@H]1O` [inositol monophosphate, reference compound], the “inhibition of the PI-PLC effect on egg binding of ACE knockout sperm” value in the series on sperm-zona binding (4 mM with PI-PLC) is on record as “inhibition”.

B1: GPI-PLD: only mammalian enzyme known so far showing GPI-anchor-cleaving activity (protein, UniProt P80108 24-840, looked up)
Phosphatidylinositol-glycan-sp …: CGLSTHVEIGHRALEFLQLHNGRVNYRELLLEHQDAYQAGIVFPDCFYPSICKGGKFHDVSESTHWTPFLNASVHYIRENYPLPWEKDTEKLVAFLFGITSHMAADVSWHSLGLEQGFLRTMGAIDFHGSYSEAHSAGDFGGDVLSQFEFNFNYLARRWYVPVKDLLGIYEKLYGRKVITENVIVDCSHIQFLEMYGEMLAVSKLYPTYSTKSPFLVEQFQEYFLGGLDDMAFWSTNIYHLTSFMLENGTSDCNLPENPLFIACGGQQNHTQGSKMQKNDFHRNLTTSLTESVDRNINYTERGVFFSVNSWTPDSMSFIYKALERNIRTMFIGGSQLSQKHVSSPLASYFLSFPYARLGWAMTSADLNQDGHGDLVVGAPGYSRPGHIHIGRVYLIYGNDLGLPPVDLDLDKEAHRILEGFQPSGRFGSALAVLDFNVDGVPDLAVGAPSVGSEQLTYKGAVYVYFGSKQGGMSSSPNITISCQDIYCNLGWTLLAADVNGDSEPDLVIGSPFAPGGGKQKGIVAAFYSGPSLSDKEKLNVEAANWTVRGEEDFSWFGYSLHGVTVDNRTLLLVGSPTWKNASRLGHLLHIRDEKKSLGRVYGYFPPNGQSWFTISGDKAMGKLGTSLSSGHVLMNGTLKQVLLVGAPTYDDVSKVAFLTVTLHQGGATRMYALTSDAQPLLLSTFSGDRRFSRFGGVLHLSDLDDDGLDEIIMAAPLRIADVTSGLIGGEDGRVYVYNGKETTLGDMTGKCKSWITPCPEEKAQYVLISPEASSRFGSSLITVRSKAKNQVVIAAGRSSLGARLSGALHVYSLGSD
On to B1, for which, in the series on DAF, the “release of DAF from the intact erythrocyte” value is “could not release”.

B2: ACE (E414D): peptidase-inactivated mutant ACE with amino acid Glu414 replaced by Asp (protein, listed as Mus musculus)
chain: MGQGWATPGLPSFLFLLLCCGHHLLVLSQVATDHVTANQGITNQATTRSQTTTHQATIDQTTQIPNLETDEAKADRFVEEYDRTAQVLLNEYAEANWQYNTNITIEGSKILLEKSTEVSNHTLKYGTRAKTFDVSNFQNSSIKRIIKKLQNLDRAVLPPKELEEYNQILLDMETTYSLSNICYTNGTCMPLEPDLTNMMATSRKYEELLWAWKSWRDKVGRAILPFFPKYVEFSNKIAKLNGYTDAGDSWRSLYESDNLEQDLEKLYQELQPLYLNLHAYVRRSLHRHYGSEYINLDGPIPAHLLGNMWAQTWSNIYDLVAPFPSAPNIDATEAMIKQGWTPRRIFKEADNFFTSLGLLPVPPEFWNKSMLEKPTDGREVVCHPSAWDFYNGKDFRIKQCTSVNMEDLVIAHHDMGHIQYFMQYKDLPVTFREGANPGFHEAIGDIMALSVSTPKHLYSLNLLSTEGSGYEYDINFLMKMALDKIAFIPFSYLIDQWRWRVFDGSITKENYNQEWWSLRLKYQGLCPPVPRSQGDFDPGSKFHVPANVPYVRYFVSFIIQFQFHEALCRAAGHTGPLHKCDIYQSKEAGKLLADAMKLGYSKPWPEAMKLITGQPNMSASAMMNYFKPLTEWLVTENRRHGETLGWPEYNWAPNTARAEGSTAESNRVNFLGLYLEPQQARVGQWVLLFLGVALLVATVGLAHRLYNIRNHHSLRRPHRGPQFGSEVELRHSLAHRLYNIRNHHSLRRPHRGPQFGSEVELRHS
Regarding B2, the “sperm-zona binding of ACE knockout sperm” value in the series on sperm-zona binding (epididymal sperm of ACE knockout mice, eggs from C57BL/6 mice) is recorded as “vigorously restored”. For the same molecule, the “peptidase activity compared with wild-type ACE” value in [1] is “less than 1/1000”. In addition, the “GPI-anchored protein releasing activity compared with wild-type ACE” value with PLAP is given as “not changed”.

B3: ACE: angiotensin-converting enzyme, isoform not named at the place (ACE-S in the FACS tests of b107/b108) (protein, listed as Mus musculus)
chain: MGQGWATPGLPSFLFLLLCCGHHLLVLSQVATDHVTANQGITNQATTRSQTTTHQATIDQTTQIPNLETDEAKADRFVEEYDRTAQVLLNEYAEANWQYNTNITIEGSKILLEKSTEVSNHTLKYGTRAKTFDVSNFQNSSIKRIIKKLQNLDRAVLPPKELEEYNQILLDMETTYSLSNICYTNGTCMPLEPDLTNMMATSRKYEELLWAWKSWRDKVGRAILPFFPKYVEFSNKIAKLNGYTDAGDSWRSLYESDNLEQDLEKLYQELQPLYLNLHAYVRRSLHRHYGSEYINLDGPIPAHLLGNMWAQTWSNIYDLVAPFPSAPNIDATEAMIKQGWTPRRIFKEADNFFTSLGLLPVPPEFWNKSMLEKPTDGREVVCHPSAWDFYNGKDFRIKQCTSVNMEDLVIAHHEMGHIQYFMQYKDLPVTFREGANPGFHEAIGDIMALSVSTPKHLYSLNLLSTEGSGYEYDINFLMKMALDKIAFIPFSYLIDQWRWRVFDGSITKENYNQEWWSLRLKYQGLCPPVPRSQGDFDPGSKFHVPANVPYVRYFVSFIIQFQFHEALCRAAGHTGPLHKCDIYQSKEAGKLLADAMKLGYSKPWPEAMKLITGQPNMSASAMMNYFKPLTEWLVTENRRHGETLGWPEYNWAPNTARAEGSTAESNRVNFLGLYLEPQQARVGQWVLLFLGVALLVATVGLAHRLYNIRNHHSLRRPHRGPQFGSEVELRHSLAHRLYNIRNHHSLRRPHRGPQFGSEVELRHS
Consider B3, for which, in the series on prion protein, the “shedding of prion protein from cell surface” value was “efficiently shed”. Moreover, in the series on CD59, the “dose dependence of CD59 shedding” value is “dose-dependent”. Also, the “effect on EGFP-GPI expression” value in the series on EGFP-GPI [2] is “little effect”. In the series with E-cadherin, the “effect on the transmembrane protein E-cadherin” value is “no effect”. For the same molecule, the “radioactivity of released products compared with PI-PLC-released molecules, labeled on the ethanolamine” value with EGFP-GPI [3] (3H ethanolamine label) was “a half”. In addition, the “radioactivity of released products compared with PI-PLC-released molecules, labeled on the phosphate” value in the series on EGFP-GPI [3] (32P phosphate label) was “about one-third”. Also, the “released EGFP-GPI products with 32P or 3H labeling” value with EGFP-GPI [3] is reported as “detected”.
